Like-named read-outs stand apart in the source and are kept apart here. Bounds are passed on as bounds.

The source of these data is patent US20200055920A1 (published 2020).

What all share (test): Biacore SPR; receptor-Fc captured by anti-Fc antibody, ligand injected
On the technique in general: SPR reads the build-up and loss of mass on a sensor chip optically.

Test [1] addresses T1, BMP10 (UniProt O95393 317-424).
T1 sequence (looked up): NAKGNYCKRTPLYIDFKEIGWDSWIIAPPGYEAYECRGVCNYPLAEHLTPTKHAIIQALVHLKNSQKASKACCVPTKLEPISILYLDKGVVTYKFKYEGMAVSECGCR

The next test deals with T2, BMP9 (UniProt Q9UK05 320-429).
T2 construct: also called GDF2
T2 sequence (looked up): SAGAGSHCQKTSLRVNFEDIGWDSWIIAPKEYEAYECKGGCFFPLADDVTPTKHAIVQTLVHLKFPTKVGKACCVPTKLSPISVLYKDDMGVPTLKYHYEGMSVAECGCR
Here is the method: (§1) Ligands were injected and allowed to flow over the captured receptor protein.

A further test addresses T3, BMP5 (UniProt P22003 317-454, limits assumed).
T3 sequence (looked up): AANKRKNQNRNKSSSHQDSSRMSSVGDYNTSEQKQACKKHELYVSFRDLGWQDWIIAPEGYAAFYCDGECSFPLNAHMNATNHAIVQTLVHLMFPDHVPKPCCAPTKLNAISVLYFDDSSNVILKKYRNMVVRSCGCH

A further test concerns the target T4, GDF11 (UniProt O95390 299-407).
T4 construct: also called BMP11
T4 sequence (looked up): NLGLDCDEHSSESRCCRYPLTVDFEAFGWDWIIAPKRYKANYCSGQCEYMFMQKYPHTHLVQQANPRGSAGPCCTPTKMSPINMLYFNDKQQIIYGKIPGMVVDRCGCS
As for the experimental part: as §1

In another test the target is T5, Activin B (UniProt P09529 293-407).
T5 construct: also called βBβB
T5 sequence (looked up): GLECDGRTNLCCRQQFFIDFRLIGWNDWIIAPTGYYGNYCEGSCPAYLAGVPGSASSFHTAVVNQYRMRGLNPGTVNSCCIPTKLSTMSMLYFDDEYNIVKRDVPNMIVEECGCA
As for the experimental part:
as §1

The target of another test is T6, Activin A (UniProt P08476 311-426).
T6 construct: also called βAβA
T6 sequence (looked up): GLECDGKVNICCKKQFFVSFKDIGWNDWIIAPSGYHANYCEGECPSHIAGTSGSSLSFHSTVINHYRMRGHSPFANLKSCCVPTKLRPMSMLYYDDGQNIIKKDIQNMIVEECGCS
As for the experimental part: as §1

In the next test the target is T7, GDF8 (UniProt O14793 267-375).
T7 construct: also called myostatin; growth and differentiation factor-8
T7 sequence (looked up): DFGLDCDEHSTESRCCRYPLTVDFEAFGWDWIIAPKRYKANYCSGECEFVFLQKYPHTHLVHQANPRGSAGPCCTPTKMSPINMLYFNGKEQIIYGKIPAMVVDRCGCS
Here is the method: as §1

Test [2] addresses T8, BMP6 (UniProt P22004 382-513, limits assumed).
T8 sequence (looked up): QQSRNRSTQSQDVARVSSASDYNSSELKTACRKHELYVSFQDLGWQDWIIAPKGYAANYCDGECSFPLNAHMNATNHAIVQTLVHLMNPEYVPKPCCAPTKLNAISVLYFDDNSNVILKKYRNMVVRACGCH

The target of another test is T9, GDF3 (UniProt Q9NR23 251-364).
T9 construct: also called VGR2
T9 sequence (looked up): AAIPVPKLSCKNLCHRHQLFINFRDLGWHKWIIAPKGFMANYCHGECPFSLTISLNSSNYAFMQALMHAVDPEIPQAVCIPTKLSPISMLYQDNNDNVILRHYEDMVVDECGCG
Here is the method:
as §1

Another test addresses BMP2 (UniProt P12643 283-396).
The next test concerns the target T10, BMP7 (UniProt P18075 293-431).
T10 construct: also called osteogenic protein-1; OP-1
T10 sequence (looked up): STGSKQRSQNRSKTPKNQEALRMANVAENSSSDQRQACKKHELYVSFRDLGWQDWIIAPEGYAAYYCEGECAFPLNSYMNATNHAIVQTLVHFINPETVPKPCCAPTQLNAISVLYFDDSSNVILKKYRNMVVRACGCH

The target of another test is T11, GDF6 (UniProt Q6KF10 336-455, limits assumed).
T11 construct: also called BMP13
T11 sequence (looked up): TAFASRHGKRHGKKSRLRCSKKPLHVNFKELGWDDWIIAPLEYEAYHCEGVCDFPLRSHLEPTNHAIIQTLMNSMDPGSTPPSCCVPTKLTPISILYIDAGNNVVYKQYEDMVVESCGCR
As for the experimental part: as §1

A further test deals with T12, BMP15 (UniProt O95972 268-392).
T12 construct: also called GDF9b
T12 sequence (looked up): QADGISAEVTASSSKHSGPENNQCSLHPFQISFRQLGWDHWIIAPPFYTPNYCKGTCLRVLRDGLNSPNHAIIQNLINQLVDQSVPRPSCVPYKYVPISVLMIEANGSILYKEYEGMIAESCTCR
As for the experimental part: A Biacore™-based binding assay was used to compare ligand binding selectivity of the single-arm BMPRII-Fc heterodimeric complex described above with that of an BMPRII-Fc homodimeric complex. The single-arm BMPRII-Fc and homodimeric BMPRII-Fc were independently captured onto the system using an anti-Fc antibody. Ligands were injected and allowed to flow over the captured receptor protein.

Test [3] addresses T1, BMP10. As for the experimental part: as §1
This is another data set of the same source.

Test [4] deals with T8, BMP6. Here is the method: as §1
The source holds these as a separate data set.

Chain of BMP2 (P12643 283-396 limits assumed): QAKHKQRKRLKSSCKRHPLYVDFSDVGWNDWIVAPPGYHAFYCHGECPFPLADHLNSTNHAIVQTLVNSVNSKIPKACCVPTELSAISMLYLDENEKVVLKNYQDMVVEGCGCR

Usually Kd stands for the equilibrium constant for the complex coming apart. Read a low Kd as tighter binding. In general, koff refers to the rate constant with which the complex falls apart. Read a low koff as a long-lived complex. By kon is commonly meant the second-order rate constant of association. A lower kon goes with slow association. In the test with BMP10 [1], ALK1-Fc homodimer (Fc fusion) gave a Kd of 0.006 nM, a koff of 0.00011 s⁻¹ and an on-rate constant (kon) of 1.7e+07 M⁻¹ s⁻¹. In the test with BMP9, the equilibrium dissociation constant (Kd) worked out at 0.016 nM, the koff was found to be 0.00013 s⁻¹ and the association rate constant (kon) was 7.9e+06 M⁻¹ s⁻¹.
On to ActRIIA-Fc homodimer (Fc fusion), for which the Kd with BMP5 is 1.1 nM; in the test with BMP10 [1], 0.086 nM; with GDF11 it was 0.028 nM; with Activin B, 0.025 nM; in the test with Activin A, 0.045 nM; with GDF8, 0.099 nM. Besides, the off-rate (koff) with BMP5 is 0.0045 s⁻¹; with BMP10 [1], 0.0025 s⁻¹; in the test with GDF11 it was 0.00072 s⁻¹; in the test with Activin B it was 0.0002 s⁻¹; in the test with Activin A it was 0.00062 s⁻¹; with GDF8 it was 0.0014 s⁻¹. For the same molecule, the kon with BMP5 turned out to be 4e+06 M⁻¹ s⁻¹; with BMP10 [1], 2.9e+07 M⁻¹ s⁻¹; with GDF11, 2.6e+07 M⁻¹ s⁻¹; with Activin B it was 7.9e+06 M⁻¹ s⁻¹; with Activin A, 1.4e+07 M⁻¹ s⁻¹; with GDF8, 1.4e+07 M⁻¹ s⁻¹.
For the molecule ActRIIB-Fc homodimer (Fc fusion), the dissociation constant (Kd) with BMP10 [1] came out at 0.011 nM; with BMP6 [2], 0.21 nM; with GDF11 it was 0.002 nM; with BMP9, 0.078 nM; in the test with Activin B, 0.02 nM; in the test with Activin A, 0.019 nM. Also, the Kd with GDF8 came out at 0.28 nM; with GDF3, 1.5 nM. In addition, the koff with BMP10 [1] amounted to 0.00026 s⁻¹; with BMP6 [2] it was 0.0068 s⁻¹; with GDF11, 0.00011 s⁻¹; with BMP9, 0.0011 s⁻¹; with Activin B, 0.0001 s⁻¹; with Activin A, 0.00023 s⁻¹. The figures for the dissociation rate constant (koff) in the test with GDF8 and in the test with GDF3 were 0.00023 s⁻¹ and 0.0022 s⁻¹, respectively. Moreover, the on-rate constant (kon) in the test with BMP10 [1] was 2.3e+07 M⁻¹ s⁻¹; with BMP6 [2], 3.2e+07 M⁻¹ s⁻¹; with GDF11, 5e+07 M⁻¹ s⁻¹; with BMP9 it was 1.4e+07 M⁻¹ s⁻¹; in the test with Activin B it was 5.1e+06 M⁻¹ s⁻¹; with Activin A it was 1.2e+07 M⁻¹ s⁻¹. For the same molecule, the kon worked out at 830000 M⁻¹ s⁻¹ in the test with GDF8 and 1.4e+06 M⁻¹ s⁻¹ with GDF3.
Turning to BMPRII-Fc homodimer (Fc fusion), the Kd was above 2000 nM with BMP2; 0.098 nM with BMP10 [1]; above 38 nM in the test with BMP7; above 8.9 nM with BMP6 [2]; above 88 nM with GDF6; 2.1 nM with BMP9. Besides, the Kd in the test with Activin B is 3.8 nM; with BMP15, 0.28 nM. Besides, the koff came to 0.0025 s⁻¹ with BMP10 [1], 0.026 s⁻¹ with BMP9, 0.075 s⁻¹ with Activin B and 0.0028 s⁻¹ with BMP15. The kon with BMP10 [1] is 2.6e+07 M⁻¹ s⁻¹; in the test with BMP9 it was 1.2e+07 M⁻¹ s⁻¹; in the test with Activin B it was 2e+07 M⁻¹ s⁻¹; with BMP15, 9.9e+06 M⁻¹ s⁻¹.

B1: single-arm ActRIIB-Fc heterodimeric complex (Fc fusion)
chain 1: GRGEAETRECIYYNANWELERTNQSGLERCEGEQDKRLHCYASWRNSSGTIELVKKGCWLDDFNCYDRQECVATEENPQVYFCCCEGNFCNERFTHLPEAGGPEVTYEPPPTAPTGGGTHTCPPCPAPELLGGPSVFLFPPKPKDTLMISRTPEVTCVVVDVSHEDPEVKFNWYVDGVEVHNAKTKPREEQYNSTYRVVSVLTVLHQDWLNGKEYKCKVSNKALPAPIEKTISKAKGQPREPQVYTLPPSRKEMTKNQVSLTCLVKGFYPSDIAVEWESNGQPENNYKTTPPVLKSDGSFFLYSKLTVDKSRWQQGNVFSCSVMHEALHNHYTQKSLSLSPGK
chain 2: SNTKVDKRVTGGGTHTCPPCPAPELLGGPSVFLFPPKPKDTLMISRTPEVTCVVVDVSHEDPEVKFNWYVDGVEVHNAKTKPREEQYNSTYRVVSVLTVLHQDWLNGKEYKCKVSNKALPAPIEKTISKAKGQPREPQVYTLPPSREEMTKNQVSLTCLVKGFYPSDIAVEWESNGQPENNYDTTPPVLDSDGSFFLYSDLTVDKSRWQQGNVFSCSVMHEALHNHYTQKSLSLSPGK
notes: The C-terminal lysine may optionally be removed; also called ActRIIB-Fc:Fc heterodimer; single-arm ActRIIB-Fc:Fc
As to B1, the Kd was determined as 0.02 nM with GDF11; 0.12 nM with Activin B; 0.099 nM with Activin A; 0.29 nM in the test with GDF8; 0.12 nM with BMP10 [3]; 12 nM with GDF3. This molecule showed a Kd in the test with BMP6 [4] of 0.69 nM. Besides, the koff with GDF11 was determined as 0.00072 s⁻¹; in the test with Activin B, 0.00042 s⁻¹; in the test with Activin A, 0.003 s⁻¹; with GDF8, 0.001 s⁻¹; in the test with BMP10 [3] it was 0.0097 s⁻¹; in the test with GDF3, 0.013 s⁻¹. For the same molecule, the dissociation rate constant (koff) with BMP6 [4] turned out to be 0.029 s⁻¹. Moreover, the association rate constant (kon) with GDF11 amounted to 3.6e+07 M⁻¹ s⁻¹; with Activin B it was 3.5e+06 M⁻¹ s⁻¹; in the test with Activin A, 3e+07 M⁻¹ s⁻¹; with GDF8 it was 3.5e+06 M⁻¹ s⁻¹; with BMP10 [3], 8e+07 M⁻¹ s⁻¹; with GDF3, 1.1e+06 M⁻¹ s⁻¹. In the test with BMP6 [4], this molecule had a kon of 4.2e+07 M⁻¹ s⁻¹. Besides, the binding result with BMP9 was “no binding”.
